Results published in paper PMC11667166, “O-glycosylation is essential for cell surface expression of the transcobalamin receptor CD320” (The Journal of Biological Chemistry, 2024).

Biological target: the molecule itself
Test: co-IP; CD320-FLAG and CD320-V5 co-expressed in HEK293 cells; immunoprecipitation with anti-FLAG or anti-V5 antibody, western blotting with anti-FLAG or anti-V5 under non-reducing conditions (~350-kDa band)

B1: human CD320 (transcobalamin receptor), wild type, with an N-terminal FLAG or V5 tag (receptor, UniProt Q9NPF0-1 36-282, looked up)
chain: SPLSTPTSAQAAGPSSGSCPPTKFQCRTSGLCVPLTWRCDRDLDCSDGSDEEECRIEPCTQKGQCPPPPGLPCPCTGVSDCSGGTDKKLRNCSRLACLAGELRCTLSDDCIPLTWRCDGHPDCPDSSDELGCGTNEILPEGDATTMGPPVTLESVTSLRNATTMGPPVTLESVPSVGNATSSSAGDQSGSPTAYGVIAAAAVLSASLVTATLLLLSWLRAQERLRPLGLLVAMKESLLLSEQKTSLP
modifications: N-glycans at N126, N195 and N213; terminally sialylated O-glycans (the ~70-kDa proteoform)
notes: CD320 (transcobalamin receptor), human, NCBI NP_057663.1; wild type; type I transmembrane protein with signal peptide, two LDLR repeats, EGF-like module, transmembrane domain and cytoplasmic segment; Two differently tagged copies of the same protein (one with N-terminal FLAG, one with N-terminal V5) were co-expressed; each chain carries only one of the two tags; The ~350-kDa complex is seen only …
For B1, the “stoichiometry N” value was ~5.
